Tests used:
[1] = tested on: HeLa Kyoto; test: thermal stability score vs G1/S (z-score of summed log2 fold changes over temperatures); higher = more thermally stable than in G1/S
[2] = tested on: HeLa Kyoto; test: solubility in G1/S (NP-40 vs SDS abundance) (log2 ratio); higher = more soluble; conditions: cell cycle stage: G1/S
[3] = tested on: HeLa Kyoto; test: solubility change mitosis vs G1/S (difference of NP-40 vs SDS log2 ratios) (log2 ratio difference); higher = more soluble in mitosis
[4] = tested on: HeLa Kyoto; test: melting temperature (median over replicates), in situ; higher = more thermally stable
[5] = cell cycle stage: early G1 (4.5 h after nocodazole release)
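For melting temperature (median over replicates), in situ in this document: HeLa Kyoto cells synchronized by double thymidine or nocodazole block, proteins quantified by TMT10plex mass spectrometry, three independent biological replicates.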
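For solubility change mitosis vs G1/S (difference of NP-40 vs SDS log2 ratios) in this document: synchronized HeLa Kyoto cells (double thymidine block for G1/S, nocodazole release for mitosis), protein amounts in NP-40 versus SDS lysates quantified by mass spectrometry, three biological replicates.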
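For solubility in G1/S (NP-40 vs SDS abundance) in this document: HeLa Kyoto cells arrested at G1/S by double thymidine block, proteins quantified by TMT10plex mass spectrometry in mild NP-40 versus SDS extracts, three biological replicates.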
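For thermal stability score vs G1/S (z-score of summed log2 fold changes over temperatures) in this document: synchronized HeLa Kyoto cells, proteins quantified by TMT10plex mass spectrometry, three biological replicates, mitosis taken 0.5 h after nocodazole release, G1/S directly after double thymidine block.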

Sequence | thermal stability score [1, 5] | thermal stability score ([1]; cell cycle stage: mitosis) | solubility in G1/S (log2) [2] | solubility change mitosis (log2) [3] | melting temperature ([4]; cell cycle stage: G1/S) | melting temperature ([4]; cell cycle stage: mitosis)
MSFLQDPSFFTMGMWSIGAGALGAAALALLLANTDVFLSKPQKAALEYLEDIDLKTLEKEPRTFKAKELWEKNGAVIMAVRRPGCFLCREEAADLSSLKSMLDQLGVPLYAVVKEHIRTEVKDFQPYFKGEIFLDEKKKFYGPQRRKMMFMGFIRLGVWYNFFRAWNGGFSGNLEGEGFILGGVFVVGSGKQGILLEHREKEFGDKVNLLSVLEAAKMIKPQTLASEKK [FAM213A] | -0.538 | -0.108 | -0.0704 | -0.0729 | 56.6 °C | 55.5 °C
MALKVATVAGSAAKAVLGPALLCRPWEVLGAHEVPSRNIFSEQTIPPSAKYGGRHTVTMIPGDGIGPELMLHVKSVFRHACVPVDFEEVHVSSNADEEDIRNAIMAIRRNRVALKGNIETNHNLPPSHKSRNNILRTSLDLYANVIHCKSLPGVVTRHKDIDILIVRENTEGEYSSLEHESVAGVVESLKIITKAKSLRIAEYAFKLAQESGRKKVTAVHKANIMKLGDGLFLQCCREVAARYPQITFENMIVDNTTMQLVSRPQQFDVMVMPNLYGNIVNNVCAGLVGGPGLVAGANYGHVYAVFETATRNTGKSIANKNIANPTATLLASCMMLDHLKLHSYATSIRKAVLASMDNENMHTPDIGGQGTTSEAIQDVIRHIRVINGRAVEA [IDH3G] | -0.804 | -0.821 | 0.253 | -0.0967 | 54.5 °C | 54 °C
MAAPSGGWNGVGASLWAALLLGAVALRPAEAVSEPTTVAFDVRPGGVVHSFSHNVGPGDKYTCMFTYASQGGTNEQWQMSLGTSEDHQHFTCTIWRPQGKSYLYFTQFKAEVRGAEIEYAMAYSKAAFERESDVPLKTEEFEVTKTAVAHRPGAFKAELSKLVIVAKASRTEL [MYDGF] | 2.14 | 0.789 | 0.19 | -0.192 | 57.7 °C | 57.7 °C
MAVDITLLFRASVKTVKTRNKALGVAVGGGVDGSRDELFRRSPRPKGDFSSRAREVISHIGKLRDFLLEHRKDYINAYSHTMSEYGRMTDTERDQIDQDAQIFMRTCSEAIQQLRTEAHKEIHSQQVKEHRTAVLDFIEDYLKRVCKLYSEQRAIRVKRVVDKKRLSKLEPEPNTKTRESTSSEKVSQSPSKDSEENPATEERPEKILAETQPELGTWGDGKGEDELSPEEIQMFEQENQRLIGEMNSLFDEVRQIEGRVVEISRLQEIFTEKVLQQEAEIDSIHQLVVGATENIKEGNEDIREAIKNNAGFRVWILFFLVMCSFSLLFLDWYDS [STX18] | 0.0563 | -0.262 | 0.186 | -0.0525 | 50.1 °C | 50.8 °C
MAAWGCVAALGAARGLCWRAARAAAGLQGRPARRCYAVGPAQSPPTFGFLLDIDGVLVRGHRVIPAALKAFRRLVNSQGQLRVPVVFVTNAGNILQHSKAQELSALLGCEVDADQVILSHSPMKLFSEYHEKRMLVSGQGPVMENAQGLGFRNVVTVDELRMAFPLLDMVDLERRLKTTPLPRNDFPRIEGVLLLGEPVRWETSLQLIMDVLLSNGSPGAGLATPPYPHLPVLASNMDLLWMAEAKMPRFGHGTFLLCLETIYQKVTGKELRYEGLMGKPSILTYQYAEDLIRRQAERRGWAAPIRKLYAVGDNPMSDVYGANLFHQYLQKATHDGAPELGAGGTRQQQPSASQSCISILVCTGVYNPRNPQSTEPVLGGGEPPFHGHRDLCFSPGLMEASHVVNDVNEAVQLVFRKEGWALE [CECR5] | 0.291 | 1.28 | 0.262 | -0.159 | 50.8 °C | 50.2 °C
MSVSLVVIRLELAEHSPVPAGFGFSAAAGEMSDEEIKKTTLASAVACLEGKSPGEKVAIIHQHLGRREMTDVIIETMKSNPDELKTTVEERKSSEASPTAQRSKDHSKECINAAPDSPSKQLPDQISFFSGNPSVEIVHGIMHLYKTNKMTSLKEDVRRSAMLCILTVPAAMTSHDLMKFVAPFNEVIEQMKIIRDSTPNQYMVLIKFRAQADADSFYMTCNGRQFNSIEDDVCQLVYVERAEVLKSEDGASLPVMDLTELPKCTVCLERMDESVNGILTTLCNHSFHSQCLQRWDDTTCPVCRYCQTPEPVEENKCFECGVQENLWICLICGHIGCGRYVSRHAYKHFEETQHTYAMQLTNHRVWDYAGDNYVHRLVASKTDGKIVQYECEGDTCQEEKIDALQLEYSYLLTSQLESQRIYWENKIVRIEKDTAEEINNMKTKFKETIEKCDNLEHKLNDLLKEKQSVERKCTQLNTKVAKLTNELKEEQEMNKCLRANQVLLQNKLKEEERVLKETCDQKDLQITEIQEQLRDVMFYLETQQKINHLPAETRQEIQEGQINIAMASASSPASSGGSGKLPSRKGRSKRGK [BRAP] | 0.558 | 1.83 | 0.1 | -0.181 | 50.3 °C | 50.2 °C
MATLPAEPSAGPAAGGEAVAAAAATEEEEEEARQLLQTLQAAEGEAAAAAGAGAGAAAAGAEGPGSPGVPGSPPEAASEPPTGLRFSPEQVACVCEALLQAGHAGRLSRFLGALPPAERLRGSDPVLRARALVAFQRGEYAELYRLLESRPFPAAHHAFLQDLYLRARYHEAERARGRALGAVDKYRLRKKFPLPKTIWDGEETVYCFKERSRAALKACYRGNRYPTPDEKRRLATLTGLSLTQVSNWFKNRRQRDRTGAGGGAPCKSESDGNPTTEDESSRSPEDLERGAAPVSAEAAAQGSIFLAGTGPPAPCPASSSILVNGSFLAASGSPAVLLNGGPVIINGLALGEASSLGPLLLTGGGGAPPPQPSPQGASETKTSLVLDPQTGEVRLEEAQSEAPETKGAQVAAPGPALGEEVLGPLAQVVPGPPTAATFPLPPGPVPAVAAPQVVPLSPPPGYPTGLSPTSPLLNLPQVVPTSQVVTLPQAVGPLQLLAAGPGSPVKVAAAAGPANVHLINSGVGVTALQLPSATAPGNFLLANPVSGSPIVTGVALQQGKIILTATFPTSMLVSQVLPPAPGLALPLKPETAISVPEGGLPVAPSPALPEAHALGTLSAQQPPPAAATTSSTSLPFSPDSPGLLPNFPAPPPEGLMLSPAAVPVWSAGLELSAGTEGLLEAEKGLGTQAPHTVLRLPDPDPEGLLLGATAGGEVDEGLEAEAKVLTQLQSVPVEEPLEL [SIX5] | 0.121 | 0.872 | -0.308 | 0.346 | – | 50.7 °C
MACRGGAGNGHRASATLSRVSPGSLYTCRTRTHNICMVSDFFYPNMGGVESHIYQLSQCLIERGHKVIIVTHAYGNRKGIRYLTSGLKVYYLPLKVMYNQSTATTLFHSLPLLRYIFVRERVTIIHSHSSFSAMAHDALFHAKTMGLQTVFTDHSLFGFADVSSVLTNKLLTVSLCDTNHIICVSYTSKENTVLRAALNPEIVSVIPNAVDPTDFTPDPFRRHDSITIVVVSRLVYRKGIDLLSGIIPELCQKYPDLNFIIGGEGPKRIILEEVRERYQLHDRVRLLGALEHKDVRNVLVQGHIFLNTSLTEAFCMAIVEAASCGLQVVSTRVGGIPEVLPENLIILCEPSVKSLCEGLEKAIFQLKSGTLPAPENIHNIVKTFYTWRNVAERTEKVYDRVSVEAVLPMDKRLDRLISHCGPVTGYIFALLAVFNFLFLIFLRWMTPDSIIDVAIDATGPRGAWTNNYSHSKRGGENNEISETR [PIGA] | -0.383 | -0.682 | -0.107 | -0.133 | 55 °C | 53.6 °C
